Reference: patent US20170114117A1 (OREGON HEALTH AND SCIENCE UNIVERSITY, published 2017)
Each block holds one binder with its values, some of them ahead of it. Ends that are not written are not given here.

Columns and labels:
[1] = biological target: T1, human macrophage migration inhibitory factor (MIF) (human, UniProt P14174 2-115); assay: competition ELISA, hMIF coated, competitor against rmCD74 (0.5 µg/ml), two-binding-site fit
T1 construct: Coated onto ELISA plates at 0.5 µg/ml; also called hMIF; human MIF
Protocol: (§1) The ability of α-helix 1 and α-helix 2 peptides to compete with MIF for binding to CD74 was tested. […] Wells were thoroughly washed with PBS/T20 and the mAb PIN.1/anti-mIgG1-HRP (at 0.5 μg/ml in 5% BSA/PBS each) was used to detect the remaining rmCD74 bound to MIF. This mAb recognizes an epitope located at the N-terminus of the protein. Color was developed after adding 50 μl of TMB for 5 minutes and the reaction was stopped with 50 μl of 0.1N HCl. Data was first normalized and then analyzed using GraphPad Prism software. IC₅₀ were calculated by fitting the curve to a competition model involving a two-binding site equation.

[2] = biological target: T2, RTL1000; assay: competition ELISA, RTL1000 coated, competitor against rmCD74 (50 nM), one-binding-site fit
T2 construct: Coated onto ELISA plates at 1 µg/ml; also called recombinant T cell receptor ligand
Protocol: (§2) Competition of peptides with rmCD74 for binding to RTL1000 or DRα1mMOG35-55 was also tested. Briefly, 50 μl of 1 μg/ml either RTL1000 or DRα1mMOG-35-55 were coated onto ELISA plates at 25° C. for 2 hours. […] Serial 1:2 dilutions of α-helix 1 or α-helix 2 (starting with a concentration of 66 μM, 50 μg/ml each) were prepared in rmCD74 (in BSA/PBS, 50 nM, 0.5 ug/ml) and added to the plate. Competition for the binding site was allowed for 3 hours at 25° C. and then unbound complexes were washed 4 times with PBS/T20. Remaining rmCD74 bound to RTL1000 or DRα1mMOG-35-55 was detected by the PIN.1/anti-mouse IgG1-HRP at 1 ul/ml of both in BSA/PBS for 1.5 hours at 25° C. and visualized by adding TMB substrate (50 μl, according to the manufacturer's instructions). Color development was stopped with 0.1N HCl and the plate was read at 450 nm in an ELISA plate reader. Data were normalized and fitted to a one-binding site model and competitor concentration was plotted against Absorbance at 450 nm to determine the IC₅₀ of each peptide competitor. All data were analyzed using Prism software (GraphPad).

[3] = biological target: T3, DRα1-mMOG-35-55; assay: competition ELISA (FIG. 4, right panel), competitor against rmCD74 on DRα1-mMOG-35-55
T3 construct: Coated onto ELISA plates at 1 µg/ml; also called DRa1mMOG-35-55; DRα1-MOG-35-55

[4] = biological target: T3, DRα1-mMOG-35-55; assay: competition ELISA, DRα1mMOG-35-55 coated, competitor against rmCD74 (50 nM), one-binding-site fit
Protocol: as §2

[5] = biological target: T3, DRα1-mMOG-35-55; assay: competition ELISA (FIG. 4, left panel), competitor against rmCD74 on DRα1-mMOG-35-55
[6] = biological target: T3, DRα1-mMOG-35-55; assay: competition ELISA (FIG. 4), competitor against rmCD74 on DRα1mMOG-35-55
[7] = biological target: T1, human macrophage migration inhibitory …; assay: competition ELISA, hMIF coated, competitor against rmCD74
Protocol: as §1

IC50 [1]: 114 µM | IC50 [2]: 34.3 µM | LogIC50 [2]: 1.53 | IC50 [3]: 24.5 µM | IC50 [4]: 167 µM | LogIC50 [4]: 2.22
B1: CD74 α-helix 2 peptide (SEQ ID NO: 4) (peptide)
peptide: KGSFPENLRHLKNTMET
notes: also called human CD74 α-helix 2; alpha helix 2

IC50 [1]: 3.74 µM | IC50 [5]: 4.71 µM | IC50 [6]: 4.75 µM | fold increase of the blocking effect against α-helix 1 alone [7]: 10 fold
B2: mixture of synthetic peptides SEQ ID NO: 2 (α-helix 1) and SEQ ID NO: 4 (α-helix 2) (other)
peptide 1: TEDHVMHLLQNAD
peptide 2: KGSFPENLRHLKNTMET
modifications: also: mixture of two separate peptides, not covalently linked
notes: A mixture of two separate peptides that are not covalently linked; In the hMIF assay the starting concentration was 33 µM of each peptide, 66 µM in total; also called α-helix 1 plus α-helix 2; combined peptides

IC50 [1]: 41.8 µM | IC50 [2]: 6.78 µM | LogIC50 [2]: 0.831 | IC50 [3]: 35 µM | IC50 [6]: 35 µM | IC50 [4]: 10.1 µM | LogIC50 [4]: 1
B3: CD74 α-helix 1 peptide (SEQ ID NO: 2) (peptide)
peptide: TEDHVMHLLQNAD
notes: also called human CD74 α-helix 1; alpha helix 1
